Target: CD123 extracellular domain (human (cDNA of L-428 cells)) (UniProt P26951)
Test: SPR
Conditions: bispecific antibody

Chain of CD123 extracellular domain (human (cDNA of L-428 cells)) (P26951 19-305): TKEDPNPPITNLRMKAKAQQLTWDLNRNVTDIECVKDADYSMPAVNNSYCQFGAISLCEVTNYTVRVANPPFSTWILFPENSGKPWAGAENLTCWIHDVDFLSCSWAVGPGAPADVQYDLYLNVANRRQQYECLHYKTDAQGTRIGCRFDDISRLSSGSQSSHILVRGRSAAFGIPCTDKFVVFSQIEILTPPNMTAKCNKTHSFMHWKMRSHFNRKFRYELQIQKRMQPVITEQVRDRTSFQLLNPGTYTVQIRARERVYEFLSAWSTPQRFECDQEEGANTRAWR

| Kd [nM] | Substance |
| --- | --- |
| 2.74 | 1 × SIRPα-αCD123 fusion antibody (from UniProt P78324 31-149) |
| 2.34 | 2 × SIRPα-αCD123 fusion antibody (from UniProt P78324 31-149; P78324 31-149) |
